Test: yeast display, Sf9 membrane polyspecificity reagent, FACS + sequencing; frameworks hold sequencing errors
Outline: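 Nanobodies from a synthetic yeast display library (Saccharomyces cerevisiae BJ5465), induced 36–48 hours with galactose, were stained 1 hour at 4 °C with 10% biotinylated, detergent-solubilized Sf9 membrane reagent, enriched on streptavidin microbeads, then FACS-sorted. Anti-HA (expression) and streptavidin (reagent binding) fluorescence set low and high (top ~1%) gates. Polyreactivity labels come from the gate of origin. Genes were colony-PCR amplified, MiSeq 2 × 250 sequenced and filtered by CDR length.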

Row | Sequence | polyreactivity (PSR sort gate)
1 | QVQLVESGGGLVQAGGSLRLSCAASGSIFISYAKGWYRQAPGKERELVAAINYSGGSTYYADSVKGRFTISRDNAKNTVYLQMNSLKPEDTAVYYCAKRSTYRYYGYKLRDYWGQVTQVTVSS | low polyreactivity
2 | QVQLVESGGGLVQAGGSLRLSCAASGSIFISYAMGWYRQAPGKERELVAAISSGGSTNYADSVKGRFTISRDNAKNTVYLQMNSLKPEDTAVYYCAADGWLLSFTGDGWWFDYWGQGTQVTVSS | low polyreactivity
3 | QVQLVESGGGLVQAGGSLRLSCAASGSIFITYAMGWYRQAPGKERELVAAIRDSGDRTYYADSVKGRFTISRDNAKNTVYLQMNSLKPEDTAVYFCNARWQEPLKYDYWGQGTQVTVSS | low polyreactivity
4 | QVQLVESGGGLVQAGGSLRLSCAASGSIFITYAMGWYRQAPGKERELVAAITWRGGSTYYADSVKGRFTISRDNAKNTVYLQMNSLKPEDTAVYYCAAEDFYYRSQYRYWYDYWGQGTQVTVSS | high polyreactivity
5 | QVQLVESGGGLVQAGGSLRLSCAASGSIFITYVMGWSRQAPGKERELVAGISRSGGSTYYADSVKGRFTISRYNAKNTVYLQMNSLKPEDTAVYYCAAFFLRRPGSSGLRLLGQGTQVTVSS | high polyreactivity
6 | QVQLVESGGGLVQAGGSLRLSCAASGSIFIVNAMGWNRQAPGKERELVAAISWSGGSTYYADSVKGRFTISRDNAKNTVYLQMNSLKPEDTAVYYCAAKYTLPFRDVKYYSWGQGTQVTVSS | high polyreactivity
7 | QVQLVESGGGLVQAGGSLRLSCAASGSIFIYNAMGWYRPAPGKETEFVDTINSGTVTKYADSVKGRFTISRDNAKNTVYLQMNSLKPEDTAVYYCATVFDRQYSTQYQVSRYDYWVQGTQVTVSS | low polyreactivity
8 | QVQLVESGGGLVQAGGSLRLSCAASGSIFIYYAMGWYRQAPGKERELVARITGGGSTYYADSVKGRFTISRDNAKNTVYLQMNSLKPEDTAVYYCAKRGYHFLTKYDYWGQGTQVTVSS | low polyreactivity
9 | QVQLVESGGGLVQAGGSLRLSCAASGSIFKANAMGWYRQAPGKERELVATITSSGTRTYYADSVKGRFTISRDNAKNTVYLQMNSLKPEDTAVYYCNARAYPYQRGRYGYWGQGTQVTVSS | high polyreactivity
10 | QVQLVESGGGLVQAGGSLRLSCAASGSIFKAYAMGWYRQAPGKERELVAAITWSAGSTYYADSVKGRFTISRDNAKNTVYLQMNSLKPEDTAVYYCAAEVRGSYYLTGYDYWGQGTQVTVSS | high polyreactivity
11 | QVQLVESGGGLVQAGGSLRLSCAASGSIFKFYAMGWNRQAPGKERAFVAAITYRGGSTYYADSVKGRFTISRDNAKNTVYLQMNRLKPEDTAVYYCNAVVLRWRGYLVPFNYWGQGTQVTVSS | high polyreactivity
12 | QVQLVESGGGLVQAGGSLRLSCAASGSIFKGYAMGWYRQAPGKEREFVAAITSSDSNTNYADSVKGRFTFSRDNAKNTVYLQLHTLKPEDTAVYYCNARIYNRLYVPHYGFNYWGQGTQVTVSS | low polyreactivity
13 | QVQLVESGGGLVQAGGSLRLSCAASGSIFKGYAMGWYRQAPGKERELVAAISRTGGSTYYADSVKGRFTISRDYAKNTVYLQMNSLKPEDTAVYYCAAYSASTYDSWGQGTQVTVSS | high polyreactivity
14 | QVQLVESGGGLVQAGGSLRLSCAASGSIFKIYAMGWYRQAPGKERELVAAITINGGSTYYADSVKGRFTISRDNAKNTVYLQMNSLKPEDTAVYYCAASADWWYEYWGQGTQVNVSS | low polyreactivity
15 | QVQLVESGGGLVQAGGSLRLSCAASGSIFKLNAMGWYRQAPGKERELVAAISRGGRTYYADSVKGRFTISRDNAKNTVYLQMNSLKPEDTAVYYCAADASSQIWYYPRDDYWGQGTNVTVSS | low polyreactivity
16 | QVQLVESGGGLVQAGGSLRLSCAASGSIFKNNAMGWYRQAPGKERELVAAIRSSGGSTYYADSVKGRFTISRDNAKHTVYLQMKSLKPEDTAVYYCAARYRSYPTYYQYNYWGQGTQVTVSS | high polyreactivity
17 | QVQLVESGGGLVQAGGSLRLSCAASGSIFKQNAMGWYRQAPGKERELVASIRASGDRTYYADSVKGRFTISRDNAKNPVYLQMNSLKPEDSAVYYCAARRVRTRGYNYWGQGTQVTVSS | high polyreactivity
18 | QVQLVESGGGLVQAGGSLRLSCAASGSIFKQNAMGWYRQAPGKERELVASIRASGDRTYYADSVKGRFTISRDNAKNTVYLQMNSLKPEDTAVYYCAARRVRTRGYNYWGQGTQVTVSS | high polyreactivity
19 | QVQLVESGGGLVQAGGSLRLSCAASGSIFKQNTKGWYRQAPGKERELVAAISSGGSTYYADSVKGRFTISRDNAKNTVYLQMNSLKPEDTAVYYCAKYYDWDYYLPLEGDYWGQGTQVTVSS | low polyreactivity
20 | QVQLVESGGGLVQAGGSLRLSCAASGSIFKQNTMGWYRQAPGKEREFVAAISSGGSTYYADSVKGRFTISRDNAKNTVYLQMNSLKPEDTAVYYCAKYYDWDYYLPLEGDYWGQGTQVTVSS | low polyreactivity
21 | QVQLVESGGGLVQAGGSLRLSCAASGSIFKQNTMGWYRQAPGKETELVAAISSGGSTYYADSVKGRFTISRDNAKNTVYLQMNSLKPEDTAVYYCAKYYDWDYYLPLEGDYWGQGTQVTVSS | low polyreactivity
22 | QVQLVESGGGLVQAGGSLRLSCAASGSIFKRNAKGWYRQAPGKERGLVAGNSQSGSSTRYADSVKGRFTISRDNAKNTVYLQMNSLKPEDTAVYYCAAELSLAYTYDYWGQGTQVTVSS | high polyreactivity

Row | Sequence | polyreactivity (PSR sort gate)
23 | QVQLVESGGGLVQAGGSLRLSCAASGSIFKRNAMGWYRQAPVKETELVAAITRSGSSTYYADSVKGRFKISRDNAKNTVYLQFNSLKPEDTSVYYCAAQYESNGYTGYYWGQGTQVSVSS | high polyreactivity
24 | QVQLVESGGGLVQAGGSLRLSCAASGSIFKRNDMGWYRQAPGKDRELVASISSGGSTHYADSVKGRFTISRDNAKNTVSLQMNSLKPEDTAVYYCAATSIRWSVGSFRRDYWGQGTQVTVSS | low polyreactivity
25 | QVQLVESGGGLVQAGGSLRLSCAASGSIFKRNPMGRYRQAPGKERELVAGISRRAGSTYYADYVKGRFTISRDNAKNTDYLQMNSLKPEDTAVYYCATYSFRGTYRYDYWGQGTQVTVSS | high polyreactivity
26 | QVQLVESGGGLVQAGGSLRLSCAASGSIFKRNTMGWYRQAPGKERELVAAISASGGRTYYADSVKGRFTISRDNAKNTVYLQMNSLKPEDTAVYYCNARFRIGRSELDYWGQGTQVTVSS | low polyreactivity
27 | QVQLVESGGGLVQAGGSLRLSCAASGSIFKRYAMGWYRQAPGKERELVAAISYSGGSTYYADSVKGLFTISRDNAKNTVYLQMNSLKPEDTAVDYCARGWFYPYYWGQGTQVTVSS | high polyreactivity
28 | QVQLVESGGGLVQAGGSLRLSCAASGSIFKSNGMGWNRQAPGKERELVAAITGSGGTTYYADSVKGRFTISRDYAKNTVYLQMNSLKPEDTAVYYCAAVNYYWGQGTQVTVSS | low polyreactivity
29 | QVQLVESGGGLVQAGGSLRLSCAASGSIFKTNAMGWYRQAPGKERELVAAIRASGGSTYYADSVKGRFTISRDNAKNTVYLQMNSLKPEDTAVYYCAARYWFKYYWGQGTQVTVSS | high polyreactivity
30 | QVQLVESGGGLVQAGGSLRLSCAASGSIFKVNAMGWYRQAPGKERELVAAISGNTDTTYYADSVKGRFTISRDNAKNTVYLQMNSLKPEDTAVYYCAADAYIKYYFRWINMYYWGQGTQVTVSS | high polyreactivity
31 | QVQLVESGGGLVQAGGSLRLSCAASGSIFKWYAMGWSRQAPGKERELVAAITNGGGSTYYADSVKGRFTISRDNAKNTVYLQMNSLKAEDTAVYYCAKDGHSYYPWVYDYWGQGTQVTVSS | low polyreactivity
32 | QVQLVESGGGLVQAGGSLRLSCAASGSIFKWYAMGWYRQAPGKERELVAAITRGGSTNYADSVKGRFTISRDNAKNTVYLQMNSLKAEDTAVYYCNAVYTYRSGFGYWGQGTQVTVSS | low polyreactivity
33 | QVQLVESGGGLVQAGGSLRLSCAASGSIFKWYTMGWYRQAPGKERELVAGISRGGSTYYADSVKGRFTISRDNAKNTVYLQMNSLKPEDTAVYYCAKASAIWRGDVKYYYWGQGTQVTVSS | high polyreactivity
34 | QVQLVESGGGLVQAGGSLRLSCAASGSIFKYSAMAWYRPAPGKERELVATITSGGRTNYADSVKGRFTISRDNAKNTVYLQMNSLKPEDPAVYYCAAGSYYPYHSTTRWYVYWGQGTQVTVSS | high polyreactivity
35 | QVQLVESGGGLVQAGGSLRLSCAASGSIFKYYAMGWYRQAPGKERELVAAISSTGGSTYYAHSLKGRFTISRDNANYTVYLQMNSLKTEDTAVYYCNTTYIWKNYDYWGQGTQVTVSS | high polyreactivity
36 | QVQLVESGGGLVQAGGSLRLSCAASGSIFKYYAMGWYRQAPGKERELVAAITTTGGITYYADSVNGRFTISRDNAKNTDYLQMISLKPEDTAVYYCNAYYPIRSSPYGYYYCGQGTQVTVSS | high polyreactivity
37 | QVQLVESGGGLVQAGGSLRLSCAASGSIFKYYTMGWYRPAPGKERELVAAITWRGGRTYYADSVKGRFTISRDNAKNTVYLQMNSLKPEDTAVYYCNTASWGFASYYYTYNYWGQGTQVTVSS | high polyreactivity
38 | QVQLVESGGGLVQAGGSLRLSCAASGSIFLAYAMGWYRQAPGKEREFVAAISFSDGSTYYADSVKGRFTISRDNAKNTVYFQMNSLKPEDTAVYYCNKGASPDDYDYWGQGTQVTVSS | low polyreactivity
39 | QVQLVESGGGLVQAGGSLRLSCAASGSIFLAYAMGWYRQAPGKERELVAAITSGGGRTYYADSVKGRFTISRDNAKNTVYLQMNSLKPEDTAVYYCAASYRAGQMWYDYWGQGTQVTVSS | high polyreactivity
40 | QVQLVESGGGLVQAGGSLRLSCAASGSIFLENAMGWYRQAPGKERELVAAISRSGGSTYYADSVKGRFTISRDNAKNTVYLQMNSLKPEDTAVYYCNAYRDVYNYFFGAKYDYWGQGTQVTVSS | high polyreactivity
41 | QVQLVESGGGLVQAGGSLRLSCAASGSIFLFNAMGWYRQAPGKERELVAAINRDDSTYYADSVKGRFTISRDNAKNTVYLLMISLKPEDTAVYYCAAPVLHAYYGYGYWGQGTQVTVSS | low polyreactivity
42 | QVQLVESGGGLVQAGGSLRLSCAASGSIFLINAMGWYRQAPGKERELVAAISWSGGSTSYADSVKGRFTISRDNAKNTVYFQMNSLKPEDTAVFYCAAESISYRPGYDYWRQGTQVTVSS | low polyreactivity
43 | QVQLVESGGGLVQAGGSLRLSCAASGSIFLIYAMGWYRQAPGKERELVAAITGGGTTNYADSVKGRFTISRDNAKNTVYLQMNSLKPEDTAVYYCNAVPRSWSPYRHWFDYWGQGTQVTVSS | low polyreactivity

Reference: the nanobody polyreactivity screen of Harvey et al. (2022)
